In patent publication US20240228572A1, “LONG ACTING GLUCAGON RECEPTOR SELECTIVE PEPTIDES AND METHODS OF USE” (i2o Therapeutics, Inc., priority 2020, published 2024):

Molecular target: hGIPR (human) (UniProt P48546)
Assay: cell-based or functional assay

Chain of hGIPR (human) (P48546 22-466): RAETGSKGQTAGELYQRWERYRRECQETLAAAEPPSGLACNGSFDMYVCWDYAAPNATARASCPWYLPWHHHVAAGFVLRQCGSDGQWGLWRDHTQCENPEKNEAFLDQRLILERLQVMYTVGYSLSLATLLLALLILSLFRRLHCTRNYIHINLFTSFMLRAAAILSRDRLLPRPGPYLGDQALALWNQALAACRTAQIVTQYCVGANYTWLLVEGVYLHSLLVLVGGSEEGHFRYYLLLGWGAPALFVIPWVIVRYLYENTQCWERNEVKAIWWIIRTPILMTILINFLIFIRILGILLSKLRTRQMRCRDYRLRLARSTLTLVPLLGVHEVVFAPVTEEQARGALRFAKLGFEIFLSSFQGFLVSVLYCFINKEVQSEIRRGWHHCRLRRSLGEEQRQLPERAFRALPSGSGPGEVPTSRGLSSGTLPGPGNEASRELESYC

pEC50, cAMP accumulation (pEC50 (-log M)): 11.8
Substance: hGIP (from UniProt P09681 52-93) (peptide)
